Results on 13 molecules are retold here after paper PMC11002876, “KcsA-Kv1.x chimeras with complete ligand-binding sites provide improved predictivity for screening selective Kv1.x blockers” (The Journal of Biological Chemistry, 2024).

The target of experiment [1] is KcsA-Kv1.3 turret-filter chimera (Streptomyces lividans | human). Kind of experiment: ELISA. A general note: In an ELISA, binding on a coated surface is turned into a signal by an enzyme label.
Experiment [2] concerns the target KcsA-Kv1.3 turret-only chimera (Streptomyces lividans | human). Kind of experiment: ELISA.
Experiment [3] concerns human Kv1.3 channel (hKv1.3). Kind of experiment: Whole-cell patch-clamp of phage-displayed toxins, hKv1.3 in human lymphocytes. Format: cell-based. The settings on record: perfusion concentration; phage-displayed toxin; experimentally titrated; N = 3. As for the experimental part:
Human Kv1.3 currents were recorded from activated peripheral blood mononuclear cells (see below) 3 to 4 days after activation. Heparinized human peripheral venous blood was obtained from healthy volunteers. Mononuclear cells were separated through Histopaque-1077 density gradient centrifugation. Collected cells were washed twice with Ca^2+- and Mg^2+-free Hanks’ solution containing 25 mM Hepes buffer, pH 7.4. Cells were cultured for 3 to 4 days in 24-well culture plates in a 5% CO2 incubator at 37 °C, in RPMI 1640 medium supplemented with 10% fetal calf serum (Sigma-Aldrich), 100 μg/ml penicillin, 100 μg/ml streptomycin, and 2 mM L-glutamine (density, 0.5 × 10^6 cells per ml). Phytohemagglutinin A (Sigma-Aldrich) was added to the medium at 10 μg/ml to amplify the Kv1.3 expression. Cells were washed gently twice with 2 ml of ECS for the patch-clamp experiments.
Conventional whole-cell patch-clamp electrophysiology was used to record ionic currents. Micropipettes were pulled from GC150F-7.5 borosilicate capillaries (Harvard Apparatus) with tip diameters between 0.5 and 1 μm resulting in a tip resistance of 2 to 8 MΩ in the extracellular (bath) solution. All measurements were carried out by using Axopatch 200B amplifier connected to a personal computer using Axon Digidata 1550A data acquisition hardware and Pclamp10.7 software (https://support.moleculardevices.com/s/article/Axon-pCLAMP-10-Electrophysiology-Data-Acquisition-Analysis-Software-Download-Page). The holding potential was −120 mV. Records were discarded when leak at the holding potential was >10% of peak current at the test potential. Experiments were performed at room temperature (20–24 °C). Before analysis, whole-cell current traces were corrected for ohmic leakage and digitally filtered with a three-point boxcar smoothing filter.
Solutions: all salts and components of the solutions were purchased from Sigma Aldrich. The extracellular (bath) solution (ECS) contained 145 mM NaCl, 5 mM KCl, 2.5 mM CaCl2, 1 mM MgCl2, 10 mM Hepes, and 5.5 mM glucose (pH 7.35 with NaOH), while the intracellular (pipette) solution (ICS) contained 140 mM KF, 2 mM MgCl2, 1 mM CaCl2, 11 mM EGTA, and 10 mM Hepes (pH 7.22 with KOH). The osmolarity of the ECS and ICS were 302 mOsM.
Native peptides, phage-expressed peptides, and positive controls used for them were dissolved in ECS supplemented with 0.1 mg/ml bovine serum albumin (BSA; Sigma-Aldrich Hungary). Bath perfusion around the measured cell with different extracellular solutions was achieved using a gravity flow micro perfusion system using a rate of 0.5 ml/min. Excess fluid was removed continuously.
Voltage protocols: For measurement of Kv1.1 to 1.3 currents, voltage steps to +50 mV were applied from a holding potential of −120 mV and the peak current was measured every 15 s. For Kv1.3 currents, 15-ms-long depolarizing pulses were applied. For Kv1.1, 50-ms-long–activating stimuli were used. Kv1.2 currents were evoked by 200-ms-long pulses. […] The remaining current fraction at a given molar concentration was calculated as I/I0, where I0 is the peak current in the absence and I is the peak current at equilibrium block or […] after ∼2 min perfusion by the investigated peptide/phage.
Phage display test solutions were prepared according to routine phage display protocols ([62]). Phosphorylated and annealed oligonucleotides encoding the peptide construct were ligated into linearized pAS62 phagemid vector (https://patents.google.com/patent/WO2022144560A1/en) at a vector/insert ratio of 1:3. The final phagemid construct harbored a signal sequence followed by the peptide of interest, a linker sequence ([…]), and the C-terminal part of the P3 coat protein (amino acids: 216-424 of NP_510891.1). Chemically competent XL1-Blue E. coli cells (2022249, Agilent) were transformed with the ligation product and then streaked onto ampicillin (100 μg/ml) containing LB/Amp plates and incubated for 16 h at 37 °C.
In general terms: In patch-clamp work, channel activity is measured electrically.

The target of experiment [4] is KcsA-Kv1.1 turret-only chimera (Streptomyces lividans | human). Kind of experiment: ELISA.
Experiment [5] has as its target KcsA-Kv1.2 turret-filter chimera (Streptomyces lividans | human). Kind of experiment: ELISA.
For experiment [6], the target named is KcsA-Kv1.2 turret-only chimera (Streptomyces lividans | human). Kind of experiment: ELISA.
Experiment [7] has as its target KcsA-Kv1.1 turret-filter chimera (Streptomyces lividans | human). Kind of experiment: ELISA.
The target is the same in experiment [8]. As to the kind of experiment: SDS-PAGE and western blot; purified proteins, 0.5 ug/well, Tris-Glycine gradient gel, 200 V 55 min; western blot with anti-His antibody; monomers and tetramers by migration. (A western blot detects proteins with antibodies after separation by electrophoresis.)
The target is the same in experiment [9]. Kind of experiment: native gel or EMSA.
The target of experiment [10] is KcsA-Kv1.1 turret-only chimera (Streptomyces lividans | human). As to the kind of experiment: SDS-PAGE and western blot; purified proteins, 0.5 ug/well, Tris-Glycine gradient gel, 200 V 55 min; western blot with anti-His antibody; monomers and tetramers by migration.
For experiment [11] the target is unchanged. Kind of experiment: native gel or EMSA.
The target of experiment [12] is KcsA-Kv1.2 turret-filter chimera (Streptomyces lividans | human). As to the kind of experiment: native gel or EMSA.
For experiment [13], the target named is KcsA-Kv1.2 turret-only chimera (Streptomyces lividans | human). As to the kind of experiment: native gel or EMSA.
Experiment [14] deals with KcsA-Kv1.3 turret-filter chimera (Streptomyces lividans | human). Kind of experiment: SDS-PAGE and western blot; purified proteins, 0.5 ug/well, Tris-Glycine gradient gel, 200 V 55 min; western blot with anti-His antibody; monomers and tetramers by migration.
The target is the same in experiment [15]. Kind of experiment: native gel or EMSA.
Experiment [16] addresses KcsA-Kv1.3 turret-only chimera (Streptomyces lividans | human). Kind of experiment: SDS-PAGE and western blot; purified proteins, 0.5 ug/well, Tris-Glycine gradient gel, 200 V 55 min; western blot with anti-His antibody; monomers and tetramers by migration.
Experiment [17] has the same target. As to the kind of experiment: native gel or EMSA.
The target of experiment [18] is human Kv1.3 voltage-gated potassium channel on activated human lymphocytes (human (endogenous in peripheral blood mononuclear cells)) (UniProt P22001).
Chain of human Kv1.3 voltage-gated potassium channel on activated human lymphocytes (human (endogenous in peripheral blood mononuclear cells)) (P22001 whole entry): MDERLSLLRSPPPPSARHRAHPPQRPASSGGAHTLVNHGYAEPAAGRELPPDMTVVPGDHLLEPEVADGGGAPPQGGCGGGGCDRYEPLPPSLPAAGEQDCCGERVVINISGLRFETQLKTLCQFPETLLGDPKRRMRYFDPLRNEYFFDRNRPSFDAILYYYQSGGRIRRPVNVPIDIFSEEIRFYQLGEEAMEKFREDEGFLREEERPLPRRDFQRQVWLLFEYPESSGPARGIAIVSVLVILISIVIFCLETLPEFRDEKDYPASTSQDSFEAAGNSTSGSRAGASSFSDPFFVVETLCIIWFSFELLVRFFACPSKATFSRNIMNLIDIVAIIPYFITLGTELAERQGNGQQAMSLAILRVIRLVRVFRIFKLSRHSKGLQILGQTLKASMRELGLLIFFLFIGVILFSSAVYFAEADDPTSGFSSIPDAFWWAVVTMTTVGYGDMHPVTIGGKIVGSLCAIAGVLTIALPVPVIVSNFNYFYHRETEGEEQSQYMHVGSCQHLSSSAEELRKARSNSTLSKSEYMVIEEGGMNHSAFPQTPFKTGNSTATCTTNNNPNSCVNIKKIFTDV
For experiment [19] the target is unchanged. The source holds these as a separate data set.

Turning to “Hongotoxin-1, synthetic peptide (from UniProt P59847 1-39)”, the figures for the IC50 in experiment [1] and in [2] were 0.108 nM and 0.671 nM, respectively.
As for “KTX1-phage: KTX1 fused to the P3 coat protein of M13 phage with an eight amino acid linker (GVEINVKCSGSPQCLKPCKDAGMRFGKCMNRKCHCTPK; not fully specified; left off: M13 P3 coat protein C-terminal part (amino acids 216-424 of NP_510891.1) behind the linker GSASSATR, C-terminal, kept)”, in experiment [3], the “phage concentration giving approximate 50% block of hKv1.3 current” value is ~3.6 × 10^13 particle/ml.
For the molecule “Kaliotoxin-1, synthetic peptide (from UniProt P24662 1-38)”, the IC50 – broadly, the point on the concentration scale where inhibition reaches its midpoint – was 98.2 nM in experiment [1]; 1.27 nM in [4]; 205 nM in experiment [5]; 0.416 nM in experiment [2]; 0.185 nM in experiment [6]; 1.49 nM in [7].
Turning to KcsA-Kv1.1 turret-filter chimera, the stoichiometry N in experiment [8] and in experiment [9] was 4 each time.
In the case of KcsA-Kv1.1 turret-only chimera, the stoichiometry N in experiment [10] and in experiment [11] was 4 in each case.
KcsA-Kv1.2 turret-filter chimera: the stoichiometry N (in general, a count of units in the complex or per binding partner) in [12] came to 4.
For KcsA-Kv1.2 turret-only chimera, the stoichiometry N in experiment [13] came out at 4.
For the molecule KcsA-Kv1.3 turret-filter chimera, the stoichiometry N in experiment [14] and in experiment [15] was 4 in each case.
As to KcsA-Kv1.3 turret-only chimera, the stoichiometry N in experiment [16] and in experiment [17] was 4 throughout.
For the molecule “Stichodactyla toxin ShK, synthetic peptide”, the IC50 in experiment [4] was 0.317 nM; in experiment [5], 15.9 nM; in [6], 0.07 nM; in [7], 0.271 nM.
Regarding “Vm24 toxin displayed on M13 phage as a fusion to the P3 coat protein (peptide)”, the estimated relative potency calculated from the phage concentration required to reach 50% blocking effect on the Kv1.3 current (relative potency) in [18] is 1. Further, the phage concentration that gave a similar (50-70%) inhibition of the hKv1.3 current, whole-cell patch-clamp on human lymphocytes in experiment [19] worked out at 6e+10 particle/ml.
Turning to Vm24 toxin, synthetic peptide, the IC50 in experiment [1] stood at 0.036 nM; in [2], 0.577 nM.

B1: Maurotoxin, synthetic peptide (peptide)
peptide: VSCTGSKDCYAPCRKQTGCPNAKCINKSCKCYGC
Regarding B1, the IC50 in [4] is greater than 1000 nM; in experiment [5], 0.129 nM; in experiment [6], greater than 1000 nM; in [7] it was greater than 1000 nM.
